From IntAct's records for PubMed 19118384

B1: FAS-associated death domain protein (Homo sapiens), Q13158 (parent)
chain: MDPFLVLLHSVSSSLSSSELTELKFLCLGRVGKRKLERVQSGLDLFSMLLEQNDLEPGHTELLRELLASLRRHDLLRRVDDFEAGAAAGAAPGEEDLCAAFNVICDNVGKDWRRLARQLKVSDTKIDSIEDRYPRNLTERVRESLRIWKNTEKENATVAHLVGALRSCQMNLVADLVQEVQQARDLQNRSGAMSPMSWNSDASTSEAS

Variants of: B1
Details: with FAS

Row | Variant | effect of a mutation on the interaction
1 | MDPFLVLLHSVSSSLSSSELTELKFLCLGRVGKRKLERVQSGLDLFSMLLEQNDLEPGHTELLRELLASLRRHDLLRRVDDFEAGAAAGAAPGEEDLCAAFNVICDNVGKDWRRLARQLKVSDTKIDSIEDRYPRNLTERVRESLRIWKNTEKENATVAHLVGALRSCQMNEVADLVQEVQQARDLQNRSGAMSPMSWNSDASTSEAS [L172E] | decreasing interaction
